Drawing on article PMC4760772, “The Development of a Recombinant scFv Monoclonal Antibody Targeting Canine CD20 for Use in Comparative Medicine” (PLoS ONE, 2016), this text covers binding result, Kd and koff for three molecules.

Experiment [1] has as its target T1, endogenous canine CD20 protein in 3132 canine lymphoma cells (Canis lupus familiaris (Dog) (Canis …, UniProt Q3C2E2)).
T1 construct: canine CD20, endogenous protein; also called authentic canine CD20 protein
Nature of the experiment: immunoblot; lysates or chemical fractions of 3132 canine lymphoma cells, and lysates of H1299 cells transfected with human GFP-CD20, blotted with NCD1.2. Particulars: one partner purified.

The target of experiment [2] is T2, biotinylated canine CD20 peptide (biotin-SGSGNCDPANPSEKNSLSIQYCGS) (Canis lupus familiaris, biotin on the N-terminus).
T2 construct: spacer between the biotin and the CD20 stretch; also called biotinylated CD20 peptide
T2 chain: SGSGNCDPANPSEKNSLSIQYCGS
Nature of the experiment: BLI; Octet RED, as a1 but in the presence of DTT; relative Kd. Particulars: both partners purified. Background: BLI is a label-free optical method that tracks binding on a fibre tip over time.

Experiment [3] has as its target T3, biotinylated canine CD20 peptide (biotin-SGSGNCDPANPSEKNSLSIQYCGS) (canine, biotin on the N-terminus).
T3 peptide: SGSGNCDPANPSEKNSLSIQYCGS
In words: BLI; without DTT.

The target in experiment [4] is T4, canine CD20 protein in clinically-derived canine cells and tissue (Canis lupus familiaris (Dog) (Canis …, UniProt Q3C2E2)).
T4 construct: canine CD20 on normal B cells and B-cell lymphoma cells of dogs; also called membranous CD20; CD20 in canine tissue
T4 sequence (Q3C2E2 whole entry): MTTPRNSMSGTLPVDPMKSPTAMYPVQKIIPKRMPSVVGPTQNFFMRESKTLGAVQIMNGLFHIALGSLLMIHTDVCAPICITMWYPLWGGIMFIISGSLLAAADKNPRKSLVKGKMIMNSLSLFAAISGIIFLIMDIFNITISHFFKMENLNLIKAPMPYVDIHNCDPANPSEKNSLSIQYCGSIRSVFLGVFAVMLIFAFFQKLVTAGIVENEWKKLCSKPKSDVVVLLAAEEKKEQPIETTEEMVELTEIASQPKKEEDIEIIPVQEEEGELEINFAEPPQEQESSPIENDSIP
In words: immunostaining of cells or tissue; immunohistochemistry on formalin fixed paraffin embedded canine lymphoma tissue (tissue micro array), heat induced antigen retrieval. To be noted: one partner purified.

For experiment [5], the target named is T5, fluorescein-labeled peptide corresponding to human CD20 (NCEPANPSEKNSPSTQYCYS) (Homo sapiens (Human)., fluorescein (FITC) label, position not stated).
T5 construct: also called FITC tagged human CD20 peptide; fluorescent human CD20 peptide
T5 chain: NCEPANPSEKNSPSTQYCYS
Nature of the experiment: fluorescence polarisation; antibody titrated against 30 nM fluorescein-labeled human CD20 peptide in PBS, 0.05% Tween-20; 1 hr at room temperature, read at 21°C; purified mouse immunoglobulins subtracted as nonspecific binding. To be noted: both partners purified. A general note: In fluorescence polarisation assays a small probe gives low polarisation when free and higher when bound to something large.

For experiment [6], the target named is T6, bacterially expressed his-tagged canine CD20 protein (amino acids 140–190) (Canis lupus familiaris, UniProt Q3C2E2).
T6 construct: canine CD20, amino acids 140-190 comprising the extracellular domain; also called recombinant canine CD20 protein; His-tagged CD20 protein; source: bacterially expressed, purified by nickel chromatography
T6 sequence (Q3C2E2 140-190): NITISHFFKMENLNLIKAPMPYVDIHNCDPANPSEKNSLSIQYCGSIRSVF
Nature of the experiment: immunoblot; purified his-tagged canine CD20 (140-190) after electrophoresis without and with DTT, blotted with NCD1.2. Particulars: both partners purified. In general terms: In western blotting, separated proteins are transferred to a membrane and probed.

The target of experiment [7] is T2, biotinylated canine CD20 peptide …. In words: BLI; Octet RED, biotinylated CD20 peptide on streptavidin biosensors, antibody 32 nM to 0.5 nM in solution, 30°C, PBS pH 7.4 with 0.02% Tween 20, 0.005% sodium azide, 100 μg/mL BSA; global fit 1:1; relative Kd; absence of DTT. To be noted: both partners purified.
Experiment [8] concerns the target T3, biotinylated canine CD20 peptide …. Nature of the experiment: BLI; with DTT.
In experiment [9] the target is T6, bacterially expressed his-tagged canine …. In words: ELISA; CHO supernatants (diluted 1:40 or 1:80) on His-tagged CD20 protein or on biotinylated CD20 peptide; detected with peroxidase conjugated protein A, TMB, OD 450 nm. Particulars: one partner purified.

T1 sequence (Q3C2E2 whole entry): as the sequence (Q3C2E2 whole entry) above

B1: monoclonal antibody NCD1.2 (antibody, V domains shown)
VH: VESGGGLVQPGDSLRLSCATSGFTFTDYFMSWVRQPPGKSLEWLGLIRNKVNGYTAEYSASVKGRFTISRDNSRGILYLQMYTLRAEDSATYYCVRASTGTSFVYWGQGTLVTVSA
VL: AAAFSNPVTLGTSVSISCRSSKSLLHRNGFTYLYWYLQRPGQSPQLLIYQMSNLASGVPDRFSSSGSGTDFTLRISRVEAEDVGVYYCAQNLELPFTFGGGTKLELK
notes: VH cloned from the NCD1.2 hybridoma, as the VH of m9 and m10 (scFv-3 and scFv-7; identical VH genes, identical CDRs); the first residues of the cloned VH come from degenerate PCR primers; constant region of a mouse IgG; VL as the VL of m9 (scFv-3) or of m10 (scFv-7); both light chain mRNAs are made by the hybridoma; mouse light chain constant region; not described; IgG; also called NCD1.2 MAB; …
With B1, the binding result in experiment [1], in [4], in [5] and in experiment [6] was “binds” throughout. Also, the Kd in [2] worked out at 0.31 nM; in experiment [7] it was 0.34 nM. Besides, the dissociation rate constant (koff) was determined as 3.19e-05 s⁻¹ in [3] and 3.41e-05 s⁻¹ in experiment [8].

B2: scFv-3 secreted from CHO cells (scFv, V domains shown)
VH: EVNVVESGGGLVQPGDSLRLSCATSGFTFTDYFMSWVRQPPGKSLEWLGLIRNKVNGYTAEYSASVKGRFTISRDNSRGILYLQMYTLRAEDSATYYCVRASTGTSFVYWGQGTLVTVSA
VL: DIVMTQPPAIMSASPGEKVTMTCSASSSVSYMHWYQQKSGTSPKRWIYDTSKLASGVPDRFSSSGSGTDFTLRISRVEAEDVGVYYCAQNLELPFTFGGGTKLEIK
notes: VL of scFv-3, as in m9; linker, as in m9; VH of scFv-3, as in m9; Cloned into the KpnI-EcoRI sites of pCDNA3.1; also called scFv-3 supernatant
On to B2, for which the binding result in experiment [9] is “binds”.

B3: scFv-7 secreted from CHO cells (scFv, V domains shown)
VH: EVQGVESGGGLVQPGDSLRLSCATSGFTFTDYFMSWVRQPPGKSLEWLGLIRNKVNGYTAEYSASVKGRFTISRDNSRGILYLQMYTLRAEDSATYYCVRASTGTSFVYWGQGTLVTVSA
VL: IVMTQAAAFSNPVTLGTSVSISCRSSKSLLHRGFTYLYWYLQRPGQSPQLLIYQMSNLASGVPDRFSSSGSGTDFTLRISRVEAEDVGVYYCAQNLELPFTFGGGTKLELK
notes: VL of scFv-7, as in m10; linker, as in m10; VH of scFv-7, as in m10; Cloned into the KpnI-EcoRI sites of pCDNA3.1; also called scFv-7 supernatant
Take B3: the binding result in [9] is given as “binds”.

By Kd is commonly meant the free concentration of one partner at which half of the binding sites on the other are occupied at equilibrium, for simple one-to-one binding. A word on the koff: it is the first-order rate constant of dissociation. Lower therefore signals slow dissociation.
